According to US20250188151A1, “C-JUN ANTAGONIST PEPTIDES” (The University of Bath, priority 2022, published 2025):

Assays:
[1] = biological target: T1, cJun bZIP/TRE DNA interaction (transcriptional block of TRE-mDHFR) (Homo sapiens, UniProt P05412, S292Y); assay: Transcription Block Survival (TBS) assay: colony counting and growth competition in E. coli; type: cell-based
T1 construct: expressed in transfected cells; host or cells: E. coli BL21 Gold carrying pES300d-TRE-mDHFR and pES230d-cJun bZIP
T1 sequence (P05412 with tags, fused parts or gaps S292Y): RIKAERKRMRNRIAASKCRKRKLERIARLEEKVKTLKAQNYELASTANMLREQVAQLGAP
From the text: Library Construction and TBS Assay: Library inserts were produced using PCR fill-in reactions from synthesised primers (Sigma) with degenerate codons at the desired positions to produce the correct residue options. The library was subcloned using SacI and AscI sites into the pET24a plasmid containing A-FosW. The primers used were cJun-Hinge-Lib-F: 5′-[…] TATGCC-3′ (SEQ ID NO: 49) and cJun-Hinge-Lib_R: 5′-[…] GTTC-3′ (SEQ ID NO: 50). The library DNA was transformed into NEB 10-beta electrocompetent E. coli cells. The following equation was utilised to determine library coverage by the number of single colonies: E=100×(1−1/n)^m where E is the percentage of the library missing, m is the number of colonies collected and n is the library size. […] Library DNA quality was assessed by sequencing both the DNA pool and a number of single colonies to show degenerate codons in the correct positions in the pool and to show a diversity of library members from single colonies. The pool of library DNA was transformed into BL21 Gold cells already containing pES300d-TRE-mDHFR and pES230d-cJun bZIP.
Selective pressure is applied by growing the bacteria in M9 minimal media with TMP (2-4 μM) alongside ampicillin, kanamycin and chloramphenicol to maintain the required plasmids, and IPTG (1 mM) to induce protein expression. The library transformants were first plated out onto selective agar plates (2 μM TMP) and grown at 37° C. for 72-96 h. Optimisation experiments (FIG. 5) indicate that 4 μM TMP is optimum for selection however a lower stringency is used initially before selection is increased in later steps. Colonies from this first round of selection were pooled and serially grown in liquid culture at starting OD600 of 0.05 and grown at 37° C. with shaking at 200 rpm until the OD600 reached 0.6. TMP concentration was 2 μM in the first liquid culture passage before it was increased to the optimum 4 μM in subsequent passages. […] At each passage step, a sample of the culture was plated on LB agar (supplemented with antibiotics to maintain plasmids) to select and sequence individual colonies, and a DNA pool was also sequenced. This allows the occurrence of library members to be monitored as winner sequences are selected for. Assay Validation experiments utilised a modified assay methodology whereby overnight cultures from glycerol stocks of the Control Strains (Table 2) were diluted to OD600=0.5 and 50 μL was plated on a selective M9 minimal medium agar plate.
Transcription block survival (TBS) is an intracellular assay that utilises cell survival as a readout. […] This enzyme is absolutely essential for survival since it is required for the production of purines needed for DNA and amino acid synthesis. […]. We produced a mDHFR gene (FIGS. 2 and 3) by rational design to introduce 15 TRE sites into the coding DNA sequence to allow a robust cJun transcriptional block whilst minimising alteration to the expressed protein (TRE-mDHFR). In particular, the resulting TRE-mDHFR construct was produced via two silent and thirteen conservative mutations. […] The accessible surface areas of all other amino acid residues were calculated using the ‘Accessible Surface Area and Accessibility Calculation for Protein’ tool (http://cib.cf.ocha.ac.jp/bitool/ASA/). […]

cJun/TRE DNA interaction = biological target: T2, cJun/TRE DNA interaction (Homo sapiens, UniProt P05412, S292Y); assay: CD cJun/TRE DNA antagonism (shift of TRE DNA peak at ~281 nm, Hill fit); type: biochemical; conditions: HingeW concentrations of 50 and 100 μM
T2 construct: The same 60 amino acid c-Jun bZIP construct was used for all experiments; His-SUMO (N, cleaved yes); made in house; host or cells: E. coli
T2 sequence (P05412 with tags, fused parts or gaps S292Y): as above

B1: HingeW (peptide)
peptide: MASLEQRAEELARENEELEKEAEELVVEEDVLEEEIEQLEERNYALRKEIEDLQKQLEKLGAPHHHHHH
notes: Recombinant, capped (MAS at the N-terminus, GAP at the C-terminus) and C-terminally 6xHis-tagged, 69 amino acids; also called peptide 1
direct competition in liquid culture, sequence observed by DNA sequencing ([1]; equal numbers of TBS cells with A-FosW or HingeW, after three passages): only HingeW was observed | effect on TRE-mDHFR transcriptional block / colony numbers ([1]; vs transcriptionally blocked cells (TRE-mDHFR + cJun bZIP)): restore cell survival | antagonism of the cJun/TRE interaction (cJun/TRE DNA interaction): complete antagonism
